Variants at the floor of the assay were thinned out.
Key:
biotinyl-Met-oxazolone = assay: self-aminoacylation, catalytic enhancement (BMO) (fold over background); higher = more active; k-Seq, kA / k0A0; sequences stand for … in GGGAAUGGAUCCACAUCUACGAAUUC…UUCACUGCAGACUUGACGAAGCUG
Procedure, shortened: (§1)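 The uncatalyzed rate is the low-activity peak of a bimodal Gaussian fit, and catalytic enhancement is median kA divided by it. The kA values came from pseudo-first-order fits, with 1000 bootstraps, of per-sequence fraction reacted measured by streptavidin capture, triplicate qPCR and Illumina sequencing. Mutagenized RNA pools with a 21-nt variable region (0.43 μM) were reacted with each biotinyl-aminoacyl-oxazolone at 2–1250 μM in 50 μL HEPES/NaCl/KCl/MgCl2/CaCl2 buffer with 5% acetonitrile, pH 6.9–7.0, for 90 minutes at room temperature.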

biotinyl-Phe-oxazolone = assay: self-aminoacylation, catalytic enhancement (BFO) (fold over background); higher = more active; k-Seq, kA / k0A0; sequences stand for … in GGGAAUGGAUCCACAUCUACGAAUUC…UUCACUGCAGACUUGACGAAGCUG
Procedure, shortened: as §1

biotinyl-Ile-oxazolone = assay: self-aminoacylation, catalytic enhancement (BIO) (fold over background); higher = more active; k-Seq, kA / k0A0; sequences stand for … in GGGAAUGGAUCCACAUCUACGAAUUC…UUCACUGCAGACUUGACGAAGCUG
Procedure, shortened: as §1

biotinyl-Leu-oxazolone = assay: self-aminoacylation, catalytic enhancement (BLO) (fold over background); higher = more active; k-Seq, kA / k0A0; sequences stand for … in GGGAAUGGAUCCACAUCUACGAAUUC…UUCACUGCAGACUUGACGAAGCUG
Procedure, shortened: as §1

biotinyl-Trp-oxazolone = assay: self-aminoacylation, catalytic enhancement (BWO) (fold over background); higher = more active; k-Seq, kA / k0A0; sequences stand for … in GGGAAUGGAUCCACAUCUACGAAUUC…UUCACUGCAGACUUGACGAAGCUG
Procedure, shortened: as §1

biotinyl-Val-oxazolone = assay: self-aminoacylation, catalytic enhancement (BVO) (fold over background); higher = more active; k-Seq, kA / k0A0; sequences stand for … in GGGAAUGGAUCCACAUCUACGAAUUC…UUCACUGCAGACUUGACGAAGCUG
Procedure, shortened: as §1

| Sequence | self-aminoacylation (biotinyl-Met-oxazolone) | self-aminoacylation (biotinyl-Phe-oxazolone) | self-aminoacylation (biotinyl-Ile-oxazolone) | self-aminoacylation (biotinyl-Leu-oxazolone) | self-aminoacylation (biotinyl-Trp-oxazolone) | self-aminoacylation (biotinyl-Val-oxazolone) |
| --- | --- | --- | --- | --- | --- | --- |
| AAGUUUGCUAAUAGUCGGAAC [Fam3.1 aminoacylation ribozyme variant] | 1.01 | 0.662 | 1.05 | 0.951 | 1.05 | 0.851 |
| AAGUUUGCUAAUAGUCGGCAG [Fam3.1 aminoacylation ribozyme variant] | 0.98 | 1.3 | 0.923 | 0.983 | 1.28 | 0.785 |
| AAGUUUGCUAAUAGUCGUACG [Fam3.1 aminoacylation ribozyme variant] | 0.547 | 1.11 | 0.65 | 0.524 | 0.579 | 0.565 |
| AAGUUUGCUAAUAGUGGAAAG [Fam3.1 aminoacylation ribozyme variant] | 1.2 | 0.794 | 1.21 | 0.876 | 0.946 | 0.944 |
| AAGUUUGCUAAUAUGCGCAAG [Fam3.1 aminoacylation ribozyme variant] | 0.89 | 1.34 | 0.847 | 0.843 | 1.2 | 0.61 |
| AAGUUUGCUAAUAUUCGUAAG [Fam3.1 aminoacylation ribozyme variant] | 0.616 | 0.919 | 0.83 | 0.636 | 0.911 | 0.779 |
| AAGUUUGCUAAUGAUCGCAAG [Fam3.1 aminoacylation ribozyme variant] | 0.488 | 0.952 | 0.697 | 0.52 | 0.749 | 0.603 |
| AAGUUUGCUAAUGGACGCAAG [Fam3.1 aminoacylation ribozyme variant] | 0.604 | 1.18 | 0.591 | 0.83 | 0.56 | 0.576 |
| AAGUUUGCUAAUGGUCGCUAG [Fam3.1 aminoacylation ribozyme variant] | 0.963 | 0.714 | 0.829 | 0.908 | 0.845 | 0.975 |
| AAGUUUGCUAAUUGCCGCAAG [Fam3.1 aminoacylation ribozyme variant] | 1.47 | 1.02 | 1.87 | 1.35 | 2.73 | 1.44 |
| AAGUUUGCUAAUUUUCGCAAG [Fam3.1 aminoacylation ribozyme variant] | 1.06 | 0.884 | 1.07 | 1.23 | 1.85 | 1.1 |
| AAGUUUGCUACCAGUCGCAAG [Fam3.1 aminoacylation ribozyme variant] | 1.47 | 0.754 | 1.12 | 0.891 | 0.552 | 0.912 |
| AAGUUUGCUACGAGUCGCAAG [Fam3.1 aminoacylation ribozyme variant] | 0.922 | 1.05 | 0.656 | 0.671 | 0.978 | 0.876 |
| AAGUUUGCUACUAGUCACAAG [Fam3.1 aminoacylation ribozyme variant] | 0.969 | 2.36 | 0.962 | 0.772 | 1.29 | 1.02 |
| AAGUUUGCUACUAGUCGCACG [Fam3.1 aminoacylation ribozyme variant] | 1.02 | 1.28 | 0.967 | 1.1 | 1.73 | 0.846 |
| AAGUUUGCUACUCGUCGCAAG [Fam3.1 aminoacylation ribozyme variant] | 0.922 | 0.598 | 0.823 | 0.958 | 1.31 | 1.04 |
| AAGUUUGCUAGUAGUCGCAAU [Fam3.1 aminoacylation ribozyme variant] | 0.922 | 1.2 | 1.01 | 0.95 | 0.724 | 1.08 |
| AAGUUUGCUAGUAGUGGCAAG [Fam3.1 aminoacylation ribozyme variant] | 0.882 | 1.2 | 0.893 | 0.71 | 0.556 | 0.814 |
| AAGUUUGCUAUAAGUCGCAAG [Fam3.1 aminoacylation ribozyme variant] | 0.995 | 1 | 1.12 | 0.726 | 0.892 | 0.9 |
| AAGUUUGCUAUUAGUCACAAG [Fam3.1 aminoacylation ribozyme variant] | 1.24 | 1.85 | 1.19 | 1.16 | 1.28 | 1.3 |
| AAGUUUGCUAUUAGUCGCAUG [Fam3.1 aminoacylation ribozyme variant] | 0.953 | 1.98 | 1.01 | 1.21 | 0.858 | 0.79 |
| AAGUUUGCUAUUCGUCGCAAG [Fam3.1 aminoacylation ribozyme variant] | 1.23 | 0.857 | 0.985 | 0.902 | 0.872 | 0.862 |

| Sequence | self-aminoacylation (biotinyl-Met-oxazolone) | self-aminoacylation (biotinyl-Phe-oxazolone) | self-aminoacylation (biotinyl-Ile-oxazolone) | self-aminoacylation (biotinyl-Leu-oxazolone) | self-aminoacylation (biotinyl-Trp-oxazolone) | self-aminoacylation (biotinyl-Val-oxazolone) |
| --- | --- | --- | --- | --- | --- | --- |
| AAGUUUGCUAUUUGUCGCAAG [Fam3.1 aminoacylation ribozyme variant] | 0.936 | 1.05 | 1.04 | 0.989 | 1.2 | 0.819 |
| AAGUUUGCUCAUAAUCGCAAG [Fam3.1 aminoacylation ribozyme variant] | 0.699 | 0.71 | 0.812 | 0.726 | 0.658 | 0.766 |
| AAGUUUGCUCAUAGCCGCAAG [Fam3.1 aminoacylation ribozyme variant] | 0.891 | 1.35 | 0.88 | 0.719 | 0.78 | 0.895 |
| AAGUUUGCUCAUAGUCGCAAA [Fam3.1 aminoacylation ribozyme variant] | 1.69 | 1.45 | 1.49 | 1.44 | 1.49 | 1.41 |
| AAGUUUGCUCAUAGUCGCAAG [Fam3.1 aminoacylation ribozyme variant] | 1.13 | 7.54 | 0.968 | 0.906 | 2.38 | 0.942 |
| AAGUUUGCUGAUAGUCGCAAG [Fam3.1 aminoacylation ribozyme variant] | 0.906 | 1.68 | 0.979 | 0.866 | 1.02 | 0.952 |
| AAGUUUGCUUAUAAUCGCAAG [Fam3.1 aminoacylation ribozyme variant] | 0.688 | 1.03 | 0.833 | 0.739 | 1.02 | 0.815 |
| AAGUUUGCUUAUAGUCGCACG [Fam3.1 aminoacylation ribozyme variant] | 0.961 | 1.27 | 0.815 | 0.932 | 0.924 | 0.855 |
| AAGUUUGCUUAUAGUCGCAUG [Fam3.1 aminoacylation ribozyme variant] | 0.857 | 1.33 | 0.918 | 0.926 | 0.976 | 0.999 |
| AAGUUUGCUUAUAGUUGCAAG [Fam3.1 aminoacylation ribozyme variant] | 0.919 | 0.81 | 0.877 | 0.894 | 0.591 | 0.987 |
| AAGUUUGGUAAUAGACGCAAG [Fam3.1 aminoacylation ribozyme variant] | 0.453 | 0.706 | 0.574 | 0.442 | 0.575 | 0.487 |
| AAGUUUGGUAAUAGUCGCAUG [Fam3.1 aminoacylation ribozyme variant] | 1.31 | 2.43 | 1.51 | 1.31 | 1.58 | 1.62 |
| AAGUUUGGUACUAGUCGCAAG [Fam3.1 aminoacylation ribozyme variant] | 2.03 | 2.39 | 1.66 | 1.57 | 1.73 | 1.7 |
| AAGUUUGGUGAUAGUCGCAAG [Fam3.1 aminoacylation ribozyme variant] | 1.51 | 2.03 | 1.36 | 1.43 | 1.42 | 1.23 |
| AAGUUUGGUUAUAGUCGCAAG [Fam3.1 aminoacylation ribozyme variant] | 1.23 | 2.69 | 1.7 | 1.38 | 1.46 | 1.39 |
| AAGUUUGUUAAUAGUCACAAG [Fam3.1 aminoacylation ribozyme variant] | 0.982 | 1.16 | 1.06 | 0.749 | 0.701 | 0.941 |
| AAGUUUGUUAAUAGUCCCAAG [Fam3.1 aminoacylation ribozyme variant] | 0.751 | 1.12 | 0.846 | 0.775 | 0.847 | 0.884 |
| AAGUUUGUUAAUAGUCGAAAG [Fam3.1 aminoacylation ribozyme variant] | 0.764 | 1.08 | 0.947 | 0.935 | 0.713 | 0.998 |
| AAGUUUGUUAAUAGUCGCACG [Fam3.1 aminoacylation ribozyme variant] | 1.12 | 1.4 | 1.04 | 1.22 | 1.04 | 0.925 |
| AAGUUUGUUAAUGGUCGCAAG [Fam3.1 aminoacylation ribozyme variant] | 0.775 | 1.11 | 0.867 | 0.694 | 0.557 | 0.685 |
| AAGUUUUCUAAUAGUCGCACG [Fam3.1 aminoacylation ribozyme variant] | 1.38 | 1.8 | 1.3 | 1.24 | 1.34 | 1.25 |
